Measured values taken from the supplement of paper PMC9112550, “Optimization of the antimicrobial peptide Bac7 by deep mutational scanning” (BMC Biology, 2022).

Test system: Escherichia coli TOP10
Test: shrunken log2 fold change of peptide-encoding DNA abundance (4.5 h post-induction vs induction); higher = less antimicrobial activity (less host growth inhibition)
Conditions: time post-induction: 4.5 h; library: site-saturation at positions 5, 18, 19, 20
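Also: peptides expressed intracellularly from a pBAD plasmid library in pooled LB shake-flask culture, induced with 0.3% L-arabinose, DNA abundance read by NGS, three biological replicates, DESeq2 with apeglm shrinkage.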

Sequence	shrunken log2 fold change
RRIRFRPPRLPRPRPRPNILPRP	-0.178
RRIRTRPPRLPRPRPRPSRTPRP	0.305
RRIRERPPRLPRPRPRPHKYPRP	-0.902
RRIRRRPPRLPRPRPRPVMTPRP	0.573
RRIRYRPPRLPRPRPRPQEFPRP	-0.00973
RRIRTRPPRLPRPRPRPTGAPRP	0.323
RRIRDRPPRLPRPRPRPNVVPRP	-0.0354
RRIRPRPPRLPRPRPRPKICPRP	-0.0701
RRIRYRPPRLPRPRPRPWRDPRP	-0.0075
RRIRFRPPRLPRPRPRPGNDPRP	-0.512
RRIRERPPRLPRPRPRPVNMPRP	-0.139
RRIRIRPPRLPRPRPRPKMPPRP	0.0103
RRIRNRPPRLPRPRPRPRQHPRP	-0.103
RRIRMRPPRLPRPRPRPNFLPRP	-0.0651
RRIRQRPPRLPRPRPRPWGWPRP	0.546
RRIRNRPPRLPRPRPRPSNPPRP	0.0568
RRIRFRPPRLPRPRPRPSYPPRP	-0.161
RRIRARPPRLPRPRPRPHRSPRP	-0.0655
RRIRCRPPRLPRPRPRPYTNPRP	-1.19
RRIRIRPPRLPRPRPRPIRHPRP	-0.0741
RRIRARPPRLPRPRPRPVLFPRP	0.268
RRIRIRPPRLPRPRPRPSHKPRP	-0.671
RRIRGRPPRLPRPRPRPDPWPRP	0.53
RRIRVRPPRLPRPRPRPSLMPRP	-0.368
RRIRRRPPRLPRPRPRPWTMPRP	-0.257

Sequence	shrunken log2 fold change
RRIRMRPPRLPRPRPRPPRVPRP	1.23
RRIRMRPPRLPRPRPRPSYHPRP	-0.402
RRIRCRPPRLPRPRPRPMVNPRP	-0.0109
RRIRNRPPRLPRPRPRPSNTPRP	-0.446
RRIRWRPPRLPRPRPRPELSPRP	0.101
RRIRPRPPRLPRPRPRPQPEPRP	0.47
RRIRKRPPRLPRPRPRPALHPRP	0.374
RRIRDRPPRLPRPRPRPEKPPRP	-0.173
RRIRKRPPRLPRPRPRPFNRPRP	-0.203
RRIRFRPPRLPRPRPRPLDMPRP	-0.372
RRIRLRPPRLPRPRPRPPYKPRP	-0.292
RRIRQRPPRLPRPRPRPHIYPRP	-0.0139
RRIRTRPPRLPRPRPRPEINPRP	-0.106
RRIRPRPPRLPRPRPRPVMRPRP	0.95
RRIRIRPPRLPRPRPRPWNWPRP	0.0631
RRIRMRPPRLPRPRPRPKRPPRP	0.85
RRIRRRPPRLPRPRPRPSQVPRP	0.0533
RRIRQRPPRLPRPRPRPSVVPRP	0.082
RRIRARPPRLPRPRPRPASFPRP	0.387
RRIRVRPPRLPRPRPRPLAMPRP	0.209
RRIRGRPPRLPRPRPRPHLCPRP	0.58
RRIRNRPPRLPRPRPRPMLGPRP	0.0259
RRIRTRPPRLPRPRPRPECTPRP	0.0491
RRIRARPPRLPRPRPRPAKHPRP	0.558
RRIRFRPPRLPRPRPRPFQSPRP	-0.00947

Sequence	shrunken log2 fold change
RRIRHRPPRLPRPRPRPLCSPRP	-0.285
RRIRHRPPRLPRPRPRPINQPRP	-0.243
RRIRARPPRLPRPRPRPMKYPRP	-0.157
RRIRERPPRLPRPRPRPRDFPRP	-0.134
RRIRMRPPRLPRPRPRPVQKPRP	0.069
RRIRRRPPRLPRPRPRPSPHPRP	0.334
RRIRIRPPRLPRPRPRPDEKPRP	-0.0762
RRIRIRPPRLPRPRPRPTPLPRP	0.245
RRIRCRPPRLPRPRPRPNVYPRP	-0.53
RRIRVRPPRLPRPRPRPFFWPRP	0.395
RRIRWRPPRLPRPRPRPCQYPRP	0.0863
RRIRSRPPRLPRPRPRPEKWPRP	0.0431
RRIRERPPRLPRPRPRPTYDPRP	-0.528
RRIRSRPPRLPRPRPRPSQAPRP	-0.0295
RRIRFRPPRLPRPRPRPYGAPRP	-0.193
RRIRHRPPRLPRPRPRPKLMPRP	0.165
RRIRLRPPRLPRPRPRPPDLPRP	0.169
RRIRFRPPRLPRPRPRPPEKPRP	0.078
RRIRWRPPRLPRPRPRPGQSPRP	0.572
RRIRRRPPRLPRPRPRPHRNPRP	-0.317
RRIRVRPPRLPRPRPRPIDQPRP	0.216
RRIRFRPPRLPRPRPRPTGDPRP	0.127
RRIRLRPPRLPRPRPRPANDPRP	0.0379
RRIRLRPPRLPRPRPRPNSMPRP	-0.0473
RRIRMRPPRLPRPRPRPYCDPRP	-0.556

Sequence	shrunken log2 fold change
RRIRDRPPRLPRPRPRPYLCPRP	-0.148
RRIRQRPPRLPRPRPRPYRLPRP	-0.19
RRIRMRPPRLPRPRPRPFRQPRP	0.0135
RRIRQRPPRLPRPRPRPMAHPRP	0.00446
RRIRTRPPRLPRPRPRPGDTPRP	-0.0833
RRIRGRPPRLPRPRPRPAWHPRP	0.521
RRIRERPPRLPRPRPRPWRFPRP	-0.117
RRIRQRPPRLPRPRPRPGGIPRP	0.0484
RRIRARPPRLPRPRPRPCMYPRP	-0.49
RRIRHRPPRLPRPRPRPSCRPRP	-0.105
RRIRPRPPRLPRPRPRPIHEPRP	0.152
RRIRLRPPRLPRPRPRPEHRPRP	0.283
RRIRDRPPRLPRPRPRPGGVPRP	0.434
RRIRRRPPRLPRPRPRPEELPRP	0.338
RRIRYRPPRLPRPRPRPTPRPRP	0.886
RRIRDRPPRLPRPRPRPPKQPRP	-0.0537
RRIRARPPRLPRPRPRPTWLPRP	0.33
RRIRERPPRLPRPRPRPFAYPRP	0.155
RRIRTRPPRLPRPRPRPKMLPRP	-0.204
RRIRMRPPRLPRPRPRPHELPRP	0.627
RRIRTRPPRLPRPRPRPVHEPRP	0.247
RRIRTRPPRLPRPRPRPTDDPRP	-0.078
RRIRVRPPRLPRPRPRPACAPRP	0.322
RRIRPRPPRLPRPRPRPYRLPRP	-0.136
RRIRWRPPRLPRPRPRPCEWPRP	0.0102

Sequence	shrunken log2 fold change
RRIRQRPPRLPRPRPRPVVKPRP	-0.031
RRIRIRPPRLPRPRPRPDLQPRP	-0.0567
RRIRRRPPRLPRPRPRPYFVPRP	-0.381
RRIRERPPRLPRPRPRPESHPRP	-0.0157
RRIRMRPPRLPRPRPRPNWFPRP	-0.607
RRIRSRPPRLPRPRPRPCIWPRP	-0.121
RRIRVRPPRLPRPRPRPTQNPRP	0.693
RRIRPRPPRLPRPRPRPDRTPRP	-0.25
RRIRNRPPRLPRPRPRPYESPRP	-0.829
RRIRGRPPRLPRPRPRPVDNPRP	0.408
RRIRMRPPRLPRPRPRPNLSPRP	-0.436
RRIRQRPPRLPRPRPRPDFGPRP	0.0964
RRIRQRPPRLPRPRPRPHTSPRP	0.0894
RRIRSRPPRLPRPRPRPEEDPRP	-0.00277
RRIRFRPPRLPRPRPRPDCHPRP	-0.0405
RRIRQRPPRLPRPRPRPHLHPRP	-0.177
RRIRYRPPRLPRPRPRPAVPPRP	-0.625
RRIRRRPPRLPRPRPRPNCRPRP	0.563
RRIRGRPPRLPRPRPRPYRTPRP	-0.108
RRIRYRPPRLPRPRPRPEFEPRP	-0.00195
RRIRHRPPRLPRPRPRPYINPRP	-0.862
RRIRSRPPRLPRPRPRPYFAPRP	-0.645
RRIRDRPPRLPRPRPRPVFWPRP	0.639
RRIRSRPPRLPRPRPRPPKAPRP	-0.259
RRIRPRPPRLPRPRPRPSVKPRP	-0.277
